The text below walks through data of patent publication US20180016313A1 (MEDPACTO, published 2018).

Usually Kd stands for a measure of binding affinity in units of concentration.

For assay [1], the target named is T1, human LRP6 (hLRP6) protein (Cat. No. 1505-LR-025, R&D, USA) (human, UniProt O75581 20-1368, limits assumed).
T1 construct: Coated on the ELISA plate
T1 sequence (looked up): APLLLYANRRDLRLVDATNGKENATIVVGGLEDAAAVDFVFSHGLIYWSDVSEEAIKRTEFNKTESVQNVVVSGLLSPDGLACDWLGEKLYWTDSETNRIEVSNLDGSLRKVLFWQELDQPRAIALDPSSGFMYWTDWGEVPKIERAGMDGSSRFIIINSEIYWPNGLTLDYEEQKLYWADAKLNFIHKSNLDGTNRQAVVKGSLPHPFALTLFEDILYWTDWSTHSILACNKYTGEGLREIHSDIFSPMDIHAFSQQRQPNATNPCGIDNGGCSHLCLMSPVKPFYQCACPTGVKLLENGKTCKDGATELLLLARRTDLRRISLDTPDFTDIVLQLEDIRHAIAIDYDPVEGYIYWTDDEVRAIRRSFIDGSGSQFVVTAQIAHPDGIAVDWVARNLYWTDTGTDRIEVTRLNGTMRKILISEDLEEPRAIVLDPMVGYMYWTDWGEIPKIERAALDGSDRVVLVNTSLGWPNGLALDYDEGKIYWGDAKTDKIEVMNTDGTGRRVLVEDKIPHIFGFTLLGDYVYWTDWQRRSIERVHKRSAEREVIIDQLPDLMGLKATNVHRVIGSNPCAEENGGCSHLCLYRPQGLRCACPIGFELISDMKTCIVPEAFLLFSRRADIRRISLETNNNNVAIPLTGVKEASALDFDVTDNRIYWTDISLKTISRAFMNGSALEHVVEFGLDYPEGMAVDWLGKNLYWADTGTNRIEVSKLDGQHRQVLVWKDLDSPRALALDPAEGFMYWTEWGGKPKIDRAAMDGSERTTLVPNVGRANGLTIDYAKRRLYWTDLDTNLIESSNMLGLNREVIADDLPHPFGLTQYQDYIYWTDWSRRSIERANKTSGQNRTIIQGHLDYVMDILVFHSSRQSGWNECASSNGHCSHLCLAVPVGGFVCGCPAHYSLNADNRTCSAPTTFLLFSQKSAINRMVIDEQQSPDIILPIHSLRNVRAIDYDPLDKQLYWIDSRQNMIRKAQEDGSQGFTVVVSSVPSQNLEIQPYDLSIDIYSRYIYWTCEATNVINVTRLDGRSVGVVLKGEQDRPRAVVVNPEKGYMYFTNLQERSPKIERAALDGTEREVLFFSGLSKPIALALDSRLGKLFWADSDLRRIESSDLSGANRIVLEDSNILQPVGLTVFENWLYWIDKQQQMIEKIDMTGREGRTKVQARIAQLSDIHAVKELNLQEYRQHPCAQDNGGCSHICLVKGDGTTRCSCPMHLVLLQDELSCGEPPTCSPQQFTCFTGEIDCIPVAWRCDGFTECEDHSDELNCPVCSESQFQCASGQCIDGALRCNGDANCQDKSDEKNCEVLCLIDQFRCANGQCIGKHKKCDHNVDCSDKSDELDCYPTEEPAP
As to the kind of experiment: ELISA, 100 ng hLRP6 coated, DKK2 protein diluted serially from 100 nM, KD calculated from absorbance at 490 nm. As to the method: (§1) Each purified DKK2 protein and 100 μl of 1% (w/v) skim milk/1×PBS were mixed to prepare 100 nM of DKK2 protein, and 100 nM of DKK2 protein was subjected to ¼ serial dilution. The diluted protein was applied to the prepared ELISA plate, and incubated at room temperature for about 2 hours. Thereafter, the plate was washed with 200 μl of PBST five times.
(§2) 2 μl of anti-Human Fc-HRP (Cat. No. 31413, Thermo, USA) antibody was mixed with 4 ml of PBS containing 1% (w/v) skim milk, and 200 μl of this mixture was added to each well of ELISA plate and incubated at room temperature for 1 hour. Thereafter, the secondary antibody of the ELISA plate was removed, and the plate was washed with 200 of PBS five times. 10 μl of H₂O₂ solution (Cat. No. H1009-100ML, Sigma, USA), 10 ml of PC buffer (5.1 g of citric acid monohydrate, 7.3 g of sodium phosphate/L (pH 5.0)), and one tablet of OPD (Cat. No. P8787-100TAB, Sigma, USA) were mixed to prepare a mixture, and a total volume of 100 μl of the mixture was added to each well. Incubation was performed at room temperature in the dark for 10 minutes, followed by color development. Thereafter, 50 μl of a stop buffer was added to each well to terminate the color development. Absorbance at 490 nm was measured using an ELISA reader, and a dissociation constant KD value (M) was calculated from the measured absorbance. […]

In assay [2] the target is T2, mouse LRP6 (mLRP6) protein (Cat. No. 2960-LR-025, R&D, USA) (mouse, UniProt O88572 20-1370, limits assumed).
T2 construct: Coated on the ELISA plate
T2 sequence (looked up): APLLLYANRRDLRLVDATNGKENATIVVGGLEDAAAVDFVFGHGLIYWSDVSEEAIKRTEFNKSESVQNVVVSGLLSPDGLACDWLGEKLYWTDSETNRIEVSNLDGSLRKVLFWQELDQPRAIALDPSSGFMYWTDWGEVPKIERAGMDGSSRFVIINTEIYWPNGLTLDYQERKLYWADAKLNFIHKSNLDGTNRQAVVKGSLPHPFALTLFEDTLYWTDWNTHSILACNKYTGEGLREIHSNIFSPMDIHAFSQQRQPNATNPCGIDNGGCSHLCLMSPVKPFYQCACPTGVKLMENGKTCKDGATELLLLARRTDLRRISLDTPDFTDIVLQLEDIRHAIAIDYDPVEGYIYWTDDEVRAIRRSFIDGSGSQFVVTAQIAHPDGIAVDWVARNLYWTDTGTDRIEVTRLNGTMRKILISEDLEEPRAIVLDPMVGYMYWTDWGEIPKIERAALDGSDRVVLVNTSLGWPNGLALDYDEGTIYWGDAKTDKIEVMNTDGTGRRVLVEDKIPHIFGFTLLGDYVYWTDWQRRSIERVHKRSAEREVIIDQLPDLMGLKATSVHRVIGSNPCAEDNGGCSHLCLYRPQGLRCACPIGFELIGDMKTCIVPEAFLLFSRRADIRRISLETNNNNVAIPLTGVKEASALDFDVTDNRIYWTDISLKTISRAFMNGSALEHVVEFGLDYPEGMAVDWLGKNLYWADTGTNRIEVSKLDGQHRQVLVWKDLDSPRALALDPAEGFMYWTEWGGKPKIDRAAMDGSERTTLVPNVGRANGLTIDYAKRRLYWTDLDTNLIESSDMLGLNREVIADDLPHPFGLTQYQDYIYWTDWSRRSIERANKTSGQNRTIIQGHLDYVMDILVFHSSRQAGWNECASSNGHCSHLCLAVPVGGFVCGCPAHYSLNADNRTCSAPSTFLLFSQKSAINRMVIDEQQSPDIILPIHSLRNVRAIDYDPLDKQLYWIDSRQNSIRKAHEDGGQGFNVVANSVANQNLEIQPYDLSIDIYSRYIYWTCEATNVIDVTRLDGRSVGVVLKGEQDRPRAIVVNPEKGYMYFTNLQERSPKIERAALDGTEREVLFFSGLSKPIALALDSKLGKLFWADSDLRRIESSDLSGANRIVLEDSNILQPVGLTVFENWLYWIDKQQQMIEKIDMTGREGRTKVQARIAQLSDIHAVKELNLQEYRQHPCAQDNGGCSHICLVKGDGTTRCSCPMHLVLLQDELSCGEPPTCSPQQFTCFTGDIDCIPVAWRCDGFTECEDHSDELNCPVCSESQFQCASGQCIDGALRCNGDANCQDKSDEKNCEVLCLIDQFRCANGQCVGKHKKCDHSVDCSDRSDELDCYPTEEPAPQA
The experiment in a line: ELISA, 100 ng mLRP6 coated, DKK2 protein diluted serially from 100 nM, KD calculated from absorbance at 490 nm. The procedure: as §1, §2

B1: wild-type DKK2 (Cat. No. 6628-DK-010, R&D, USA) (ligand)
chain: KLNSIKSSLGGETPGQAANRSAGMYQGLAFGGSKKGKNLGQAYPCSSDKECEVGRYCHSPHQGSSACMVCRRKKKRCHRDGMCCPSTRCNNGICIPVTESILTPHIPALDGTRHRDRNHGHYSNHDLGWQNLGRPHTKMSHIKGHEGDPCLRSSDCIEGFCCARHFWTKICKPVLHQGEVCTKQRKKGSHGLEIFQRCDCAKGLSCKVWKDATYSSKARLHVCQKI
notes: Bought protein; also called wild-type DKK2 protein
In the case of B1, the Kd in assay [1] was 90 nM; in assay [2] it was 270 nM.
